In patent US20020068696A1 (published 2002):

How the values were obtained:
HA-TRAF3 = molecular target: T1, HA-TRAF3 (UniProt Q13114 1-568, limits assumed); test: co-immunoprecipitation from 293T lysates, western blot
T1 construct: not shown: HA tag
T1 sequence (looked up): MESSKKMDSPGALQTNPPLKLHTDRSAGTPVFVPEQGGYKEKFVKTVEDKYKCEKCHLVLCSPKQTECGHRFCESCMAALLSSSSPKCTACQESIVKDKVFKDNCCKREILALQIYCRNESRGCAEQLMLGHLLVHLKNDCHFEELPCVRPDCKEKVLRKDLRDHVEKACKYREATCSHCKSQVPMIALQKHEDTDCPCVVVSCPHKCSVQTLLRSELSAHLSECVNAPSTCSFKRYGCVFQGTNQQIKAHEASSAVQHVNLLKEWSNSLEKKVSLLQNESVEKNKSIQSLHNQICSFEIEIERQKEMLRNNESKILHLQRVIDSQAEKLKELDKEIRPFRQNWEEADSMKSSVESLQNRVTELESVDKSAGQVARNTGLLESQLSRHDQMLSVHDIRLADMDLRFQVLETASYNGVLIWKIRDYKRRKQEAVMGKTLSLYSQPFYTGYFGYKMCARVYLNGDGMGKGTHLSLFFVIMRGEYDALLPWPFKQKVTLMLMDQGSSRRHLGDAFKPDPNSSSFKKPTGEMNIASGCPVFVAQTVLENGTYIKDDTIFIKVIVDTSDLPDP

HA-TRAF2 = molecular target: T2, HA-TRAF2 (UniProt Q12933 1-501, limits assumed); test: as above
T2 construct: not shown: HA tag
T2 sequence (looked up): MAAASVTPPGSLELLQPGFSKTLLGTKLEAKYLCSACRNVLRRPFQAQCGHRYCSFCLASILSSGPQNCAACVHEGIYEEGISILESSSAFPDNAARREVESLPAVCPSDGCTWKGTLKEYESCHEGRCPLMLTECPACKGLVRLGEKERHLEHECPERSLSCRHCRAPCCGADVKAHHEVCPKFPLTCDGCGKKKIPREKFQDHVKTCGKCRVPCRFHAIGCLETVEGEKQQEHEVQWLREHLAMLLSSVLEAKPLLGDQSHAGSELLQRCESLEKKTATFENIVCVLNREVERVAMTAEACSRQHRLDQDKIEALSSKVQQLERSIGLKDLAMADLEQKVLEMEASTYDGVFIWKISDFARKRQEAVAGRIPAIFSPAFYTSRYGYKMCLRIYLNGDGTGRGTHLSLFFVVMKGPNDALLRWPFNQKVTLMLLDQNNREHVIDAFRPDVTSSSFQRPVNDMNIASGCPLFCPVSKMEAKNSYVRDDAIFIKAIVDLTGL

B1: deletion construct TRADE 1-218 (Flag-tagged) (receptor)
chain: KVTCESGDCRQQEFRDRSGNCVPCNQCGPGMELSKECGFGYGEDAQCVTCRLHRFKEDWGFQKCKPCLDCAVVNRFQKANCSATSDAICGDCLPGFYRKTKLVGFQDMECVPCGDPPPPYEPHCASKVNLVKIASTASSPRDTALAAVICSALATVLLALLILCVIYCKRQFMEKKPSWSLRSQDIQYNGSEL
notes: Putative 25-residue signal left out; not shown: Flag tag
binding result (HA-TRAF3): no binding

B2: Flag-tagged TRADEβ (receptor)
chain: KVTCETGDCRQQEFRDRSGNCVPCNQCGPGMELSKECGFGYGEDAQCVTCRLHRFKEDWGFQKCKPCLDCAVVNRFQKANCSATSDAICGDCLPGFYRKTKLVGFQDMECVPCGDPPPPYEPHCASKVNLVKIASTASSPRDTALAAVICSALATVLLALLILCVIYCKRQFMEKKPSWSLRSQDIQYNGSELSCLDRPQLHEYAHRACCQCRRDSVQTCGPVRLLPSMCCEEACSPNPATLGCGVHSAASLQARNAGPAGEMVPTFFGSLTQSICGEFSDAWPLMQNPMGGDNISFCDSYPELAGEDIHSLNPELESSTSLDSNSSQDLVGGAVPVQSHSENFTAATDLSRYNNTLVESASTQDALTMRSQLDQESGAIIHPATQTSLQVRQRLGSL
notes: Full-length isoform expressed in 293T cells and tested in cell lysates by co-immunoprecipitation; Position of the Flag tag unknown; Putative 25-residue signal left out; also called Flag tagged TRADE construct; not shown: Flag tag
binding result (HA-TRAF2): no binding

B3: Flag-tagged TRADEα (receptor)
chain: KVTCESGDCRQQEFRDRSGNCVPCNQCGPGMELSKECGFGYGEDAQCVTCRLHRFKEDWGFQKCKPCLDCAVVNRFQKANCSATSDAICGDCLPGFYRKTKLVGFQDMECVPCGDPPPPYEPHCASKVNLVKIASTASSPRDTALAAVICSALATVLLALLILCVIYCKRQFMEKKPSWSLRSQDIQYNGSELSCFDRPQLHEYAHRACCQCRRDSVQTCGPVRLLPSMCCEEACSPNPATLGCGVHSAASLQARNAGPAGEMVPTFFGSLTQSICGEFSDAWPLMQNPMGGDNISFCDSYPELTGEDIHSLNPELESSTSLDSNSSQDLVGGAVPVQSHSENFTAATDLSRYNNTLVESASTQDALTMRSQLDQESGAIIHPATQTSLQEA
notes: Full-length isoform expressed in 293T cells and tested in cell lysates by co-immunoprecipitation; Position of the Flag tag unknown (written last here only for want of information); Putative 25-residue signal left out; also called Flag tagged TRADE construct; not shown: Flag tag
binding result (HA-TRAF2): no binding
